The target in one test is T1, Recombinant Human IGF1R (human, UniProt P08069 31-932).
T1 construct: bought reagent
The test can be described thus: SPR (Biacore), C-terminal VD.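 Note: surface plasmon resonance with DVD-Ig proteins captured on an anti-IgG chip and recombinant antigen flowed over in HBS-EP buffer, Langmuir global fit, KD taken as koff/kon.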

Test [1] concerns the target T2, Recombinant Human MSP Receptor ECD-His tag (human, UniProt Q04912 25-957).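 Note: capture of antibodies or DVD-Ig proteins on an anti-mouse IgG chip surface, recombinant antigen injected at 10–200 nM in HBS-EP running buffer at 25 °C.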
T2 construct: extracellular domain; bought reagent; also called RON
The test can be described thus: SPR (Biacore), N-terminal VD. (In general: In SPR one partner is held on a chip, and binding of the other changes the refractive index at the surface.)
Protocol: (§1) The BIACORE assay (Biacore, Inc, Piscataway, N.J.) determined the affinity of antibodies or DVD-Ig proteins with kinetic measurements of on-rate and off-rate constants. Binding of antibodies or DVD-Ig proteins to a target antigen (for example, a purified recombinant target antigen) was determined by surface plasmon resonance-based measurements with a Biacore® 1000 or 3000 instrument (Biacore AB, Uppsala. Sweden) using running HBS-EP (10 mM HEPES [pH 7.4], 150 mM NaCl, 3 mM EDTA, and 0.005% surfactant P20) at 25° C. […] For example, approximately 5000 RU of goat anti-mouse IgG, (Fcγ), fragment specific polyclonal antibody (Pierce Biotechnology Inc, Rockford, Ill.) diluted in 10 mM sodium acetate (pH 4.5) was directly immobilized across a CM5 research grade biosensor chip using a standard amine coupling kit according to manufacturer's instructions and procedures at 25 μg/ml. Unreacted moieties on the biosensor surface were blocked with ethanolamine. Modified carboxymethyl dextran surface in flowcell 2 and 4 was used as a reaction surface. Unmodified carboxymethyl dextran without goat anti-mouse IgG in flow cell 1 and 3 was used as the reference surface. For kinetic analysis, rate equations derived from the 1:1 Langmuir binding model were fitted simultaneously to association and dissociation phases of all eight injections (using global fit analysis) with the use of Biaevaluation 4.0.1 software. Purified antibodies or DVD-Ig proteins were diluted in HEPES-buffered saline for capture across goat anti-mouse IgG specific reaction surfaces. Antibodies or DVD-Ig proteins to be captured as a ligand (25 μg/ml) were injected over reaction matrices at a flow rate of 5 μl/minute. The association and dissociation rate constants, kₒₙ (M⁻¹s⁻¹) and koff (s⁻¹) were determined under a continuous flow rate of 25 μl/minute. Rate constants were derived by making kinetic binding measurements at different antigen concentrations ranging from 10-200 nM. The equilibrium dissociation constant (M) of the reaction between antibodies or DVD-Ig proteins and the target antigen was then calculated from the kinetic rate constants by the following formula: KD=koff/kₒₙ. Binding was recorded as a function of time and kinetic rate constants were calculated.

Test [2] deals with T3, EGFR on the cell surface (human, UniProt P00533 25-1210).
T3 construct: whole, on cells
The test can be described thus: flow cytometry on cells, 2 ug/mL, C-terminal VD. (In flow cytometry, cells or beads pass a laser one at a time.)

The target of test [3] is T3, EGFR on the cell surface. The test can be described thus: flow cytometry on cells, 2 ug/mL, N-terminal VD.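 Note: cells stained for 30 to 60 min on ice.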

The source of these data is patent US20130195871A1 (AbbVie / Abbott, published 2013).
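Throughout, for GEO MEAN: cells stained for 30 to 60 min on ice.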

Protocol for Recombinant Human IGF1R: as §1

B1: DVD2340 (bispecific antibody)
VH: QVQLQESGPGLVKPSEILSLTCTVSGGSISSHYWSWVRQPPGKGLEWIGYIYYSGSTNYNPSLKSRVTISVDTSKNQFSLNLSSVTAADTAVYYCARIPNYYDRSGYYPGYWYFDLWGRGTLVTVSSASTKGPEVQLLESGGGLVQPGGSLRLSCTASGFTFSSYAMNWVRQAPGKGLEWVSAISGSGGTTFYADSVKGRFTISRDNSRTTLYLQMNSLRAEDTAVYYCAKDLGWSDSYYYYYGMDVWGQGTTVTVSS
VL: QAVLTQPSSLSAPPGASASLTCTLRSGFNVDSYRISWYQQKPGSPPQYLLRYKSDSDKQQGSGVPSRFSGSKDASANAGILLISGLQSEDEADYYCMIWHSSAWVFGGGTKLTVLRQPKAAPDIQMTQFPSSLSASVGDRVTITCRASQGIRNDLGWYQQKPGKAPKRLIYAASRLHRGVPSRFSGSGSGTEFTLTISSLQPEDFATYYCLQHNSYPCSFGQGTKLEIK
notes: DVD-Ig, outer AB034 / inner AB011
By Kd is commonly meant the concentration at which binding is half-saturated. B1: the binding result with Recombinant Human IGF1R is reported as “no binding (tested: 10-200 nM)”. Also, the Kd in test [1] came out at 23 nM.

B2: DVD2290 (bispecific antibody)
VH: EVQLVESGGGLVQPGGSLRLSCAASGFSLTNYGVHWVRQAPGKGLEWLGVGWSGGNTDYNTPFTSRLTINKDNSKNTVYLQMNSLRAEDTAVYYCARALTWYDYEFAYWGQGTLVTVSSASTKGPQVQLQESGPGLVKPSETLSLTCTVSGGSVSSGDYYWTWIRQSPGKGLEWIGHIYYSGNTNYNPSLKSRLTISIDTSKTQFSLKLSSVTAADTAIYYCVRDRVTGAFDIWGQGTMVTVSS
VL: DILLTQSPGTLSLSPGERATLSCRASQSIYTNIHWYQQKPGQAPRLLIKYASESISGIPDRFSGSGSGTDFTLTISRLEPEDFAVYYCQQNLNWPTTFGQGTKLEIKRTVAAPDIQMTQSPSSLSASVGDRVTITCQASQDISNYLNWYQQKPGKAPKLLIYDASNLETGVPSRFSGSGSGTDFTFTISSLQPEDIATYFCQHFDHLPLAFGGGTKVEIK
Take B2: the “GEO MEAN” value with EGFR on the cell surface [2] and with EGFR on the cell surface [3] was 448 each time.

B3: DVD2283 (bispecific antibody)
VH: QVQLQQWGAGLLKPSETLSLTCAVYGGSFSGYYWSWIRQPPGKGLEWIGEINHSGSTNYNPSLKSRVTISVETSKNQFSLKLSSVTAADTAVYYCARDKWTWYFDLWGRGTLVTVSSASTKGPEVQLVQSGAEVKKPGSSVKVSCKASGGTFSSYAISWVRQAPGQGLEWMGGIIPIFGTANYAQKFQGRVTITADKSTSTAYMELSSLRSEDTAVYYCARAPLRFLEWSTQDHYYYYYMDVWGKGTTVTVSS
VL: DIEMTQSPDSLAVSLGERATINCRSSQSVLYSSSNRNYLAWYQQNPGQPPKLLIYWASTRESGVPDRFSGSGSGTDFTLTISSLQAEDVAVYYCQQYYSTPRTFGQGTKVEIKRTVAAPSSELTQDPAVSVALGQTVRITCQGDSLRSYYATWYQQKPGQAPILVIYGENKRPSGIPDRFSGSSSGNTASLTITGAQAEDEADYYCKSRDGSGQHLVFGGGTKLTVL
notes: DVD-Ig, outer AB062 / inner AB075
The koff is the first-order rate constant of dissociation. One may read the kon as the second-order rate constant of association. With B3, in the test with Recombinant Human IGF1R, the Kd worked out at 5 nM, the koff was found to be 0.00012 s⁻¹ and the kon was determined as 25000 M⁻¹ s⁻¹.

B4: DVD2279 (bispecific antibody)
VH: EVQLVESGGGLVQPGGSLRLSCAASGFTFSIYSMNWVRQAPGKGLEWVSYISSSSSTIYYADSVKGRFTISRDNAKNSLYLQMNSLRDEDTAVYYCARDRGDFDAFDIWGQGTMVTVSSASTKGPEVQLVQSGAEVKKPGSSVKVSCKASGGTFSSYAISWVRQAPGQGLEWMGGIIPIFGTANYAQKFQGRVTITADKSTSTAYMELSSLRSEDTAVYYCARAPLRFLEWSTQDHYYYYYMDVWGKGTTVTVSS
VL: DIQMTQSPSSLSASVGDRVTITCQASQDITNYLNWYQQKPGKAPKLLIYDASNLETGVPSRFSGSGSGTDFTFTISSLQPEDIATYNCQQCENFPITFGQGTRLEIKRTVAAPSSELTQDPAVSVALGQTVRITCQGDSLRSYYATWYQQKPGQAPILVIYGENKRPSGIPDRFSGSSSGNTASLTITGAQAEDEADYYCKSRDGSGQHLVFGGGTKLTVL
notes: DVD-Ig, outer AB063 / inner AB075
Turning to B4, in the test with Recombinant Human IGF1R, the Kd stood at 0.047 nM, the koff worked out at 2.3e-06 s⁻¹ and the kon was 49000 M⁻¹ s⁻¹.

B5: DVD2291 (bispecific antibody)
VH: QVQLQESGPGLVKPSETLSLTCTVSGGSVSSGDYYWTWIRQSPGKGLEWIGHIYYSGNTNYNPSLKSRLTISIDTSKTQFSLKLSSVTAADTAIYYCVRDRVTGAFDIWGQGTMVTVSSASTKGPEVQLVESGGGLVQPGGSLRLSCAASGFSLTNYGVHWVRQAPGKGLEWLGVGWSGGNTDYNTPFTSRLTINKDNSKNTVYLQMNSLRAEDTAVYYCARALTWYDYEFAYWGQGTLVTVSS
VL: DIQMTQSPSSLSASVGDRVTITCQASQDISNYLNWYQQKPGKAPKLLIYDASNLETGVPSRFSGSGSGTDFTFTISSLQPEDIATYFCQHFDHLPLAFGGGTKVEIKRTVAAPDILLTQSPGTLSLSPGERATLSCRASQSIYTNIHWYQQKPGQAPRLLIKYASESISGIPDRFSGSGSGTDFTLTISRLEPEDFAVYYCQQNLNWPTTFGQGTKLEIK
Take B5: the “GEO MEAN” value with EGFR on the cell surface [2] and with EGFR on the cell surface [3] was 541 in each case.

B6: DVD2343 (bispecific antibody)
VH: EVQLVESGGGLVQPGGSLRLSCAASGFTFTDYTMDWVRQAPGKGLEWVADVNPNSGGSIYNQRFKGRFTLSVDRSKNTLYLQMNSLRAEDTAVYYCARNLGPSFYFDYWGQGTLVTVSSASTKGPQVQLQESGPGLVKPSQTLSLTCTVSGYSISSDFAWNWIRQPPGKGLEWMGYISYSGNTRYQPSLKSRITISRDTSKNQFFLKLNSVTAADTATYYCVTAGRGFPYWGQGTLVTVSS
VL: DIQMTQSPSSLSASVGDRVTITCKASQDVSIGVAWYQQKPGKAPKLLIYSASYRYTGVPSRFSGSGSGTDFTLTISSLQPEDFATYYCQQYYIYPYTFGQGTKVEIKRTVAAPDIQMTQSPSSMSVSVGDRVTITCHSSQDINSNIGWLQQKPGKSFKGLIYHGTNLDDGVPSRFSGSGSGTDYTLTISSLQPEDFATYYCVQYAQFPWTFGGGTKLEIK
Take B6: in the test with EGFR on the cell surface [2], the “GEO MEAN” value was 6.47.

B7: DVD2326 (bispecific antibody)
VH: EVQLVQSGGGLVKPGGSLRLSCAASGFTFSSYAMHWVRQAPGKGLEWVAVISYDGSNKYYADSVKGRFTISRDNSKNTLYLQMNSLRAEDTAVYYCARFSGWPNNYYYYGMDVWGQGTTVTVSSASTKGPEVQLLESGGGLVQPGGSLRLSCTASGFTFSSYAMNWVRQAPGKGLEWVSAISGSGGTTFYADSVKGRFTISRDNSRTTLYLQMNSLRAEDTAVYYCAKDLGWSDSYYYYYGMDVWGQGTTVTVSS
VL: DVVMTQSPLSLPVTPGEPASISCRSSQSLLHSNGFNYVDWYLQKPGQSPHLLIYFGSYRASGVPDRFSGSGSGTDFTLKISRVEAEDVGVYYCMQALQTPPWTFGQGTKVEIRRTVAAPDIQMTQFPSSLSASVGDRVTITCRASQGIRNDLGWYQQKPGKAPKRLIYAASRLHRGVPSRFSGSGSGTEFTLTISSLQPEDFATYYCLQHNSYPCSFGQGTKLEIK
notes: DVD-Ig, outer AB005 / inner AB011
For the molecule B7, the binding result with Recombinant Human IGF1R is “no binding (tested: 10-200 nM)”. Besides, in test [1], the Kd was 21 nM and the koff stood at 0.00091 s⁻¹.

B8: DVD2336 (bispecific antibody)
VH: QVQLQESGPGLVKPSEILSLTCTVSGGSISSHYWSWVRQPPGKGLEWIGYIYYSGSTNYNPSLKSRVTISVDTSKNQFSLNLSSVTAADTAVYYCARIPNYYDRSGYYPGYWYFDLWGRGTLVTVSSASTKGPEVQLVQSGGGLVKPGGSLRLSCAASGFTFSSFAMHWVRQAPGKGLEWISVIDTRGATYYADSVKGRFTISRDNAKNSLYLQMNSLRAEDTAVYYCARLGNFYYGMDVWGQGTTVTVSS
VL: QAVLTQPSSLSAPPGASASLTCTLRSGFNVDSYRISWYQQKPGSPPQYLLRYKSDSDKQQGSGVPSRFSGSKDASANAGILLISGLQSEDEADYYCMIWHSSAWVFGGGTKLTVLRQPKAAPEIVLTQSPGTLSVSPGERATLSCRASQSIGSSLHWYQQKPGQAPRLLIKYASQSLSGIPDRFSGSGSGTDFTLTISRLEPEDFAVYYCHQSSRLPHTFGQGTKVEIK
notes: DVD-Ig, outer AB034 / inner AB077
Consider B8, for which the binding result in the test with Recombinant Human IGF1R is listed as “no binding (tested: 10-200 nM)”. Moreover, the Kd in test [1] was 40 nM.

B9: DVD2324 (bispecific antibody)
VH: EVQLVQSGGGLVKPGGSLRLSCAASGFTFSSYAMHWVRQAPGKGLEWVAVISYDGSNKYYADSVKGRFTISRDNSKNTLYLQMNSLRAEDTAVYYCARFSGWPNNYYYYGMDVWGQGTTVTVSSASTKGPEVQLVQSGGGLVKPGGSLRLSCAASGFTFSSFAMHWVRQAPGKGLEWISVIDTRGATYYADSVKGRFTISRDNAKNSLYLQMNSLRAEDTAVYYCARLGNFYYGMDVWGQGTTVTVSS
VL: DVVMTQSPLSLPVTPGEPASISCRSSQSLLHSNGFNYVDWYLQKPGQSPHLLIYFGSYRASGVPDRFSGSGSGTDFTLKISRVEAEDVGVYYCMQALQTPPWTFGQGTKVEIRRTVAAPEIVLTQSPGTLSVSPGERATLSCRASQSIGSSLHWYQQKPGQAPRLLIKYASQSLSGIPDRFSGSGSGTDFTLTISRLEPEDFAVYYCHQSSRLPHTFGQGTKVEIK
notes: DVD-Ig, outer AB005 / inner AB077
Take B9: in the test with Recombinant Human IGF1R, the binding result was “no binding (tested: 10-200 nM)”. Moreover, in test [1], the Kd was 21 nM, the koff is 0.00093 s⁻¹ and the kon was determined as 44000 M⁻¹ s⁻¹.

B10: DVD2347 (bispecific antibody)
VH: EVQLVQSGGGLVKPGGSLRLSCAASGFTFSSFAMHWVRQAPGKGLEWISVIDTRGATYYADSVKGRFTISRDNAKNSLYLQMNSLRAEDTAVYYCARLGNFYYGMDVWGQGTTVTVSSASTKGPQVQLQESGPGLVKPSQTLSLTCTVSGYSISSDFAWNWIRQPPGKGLEWMGYISYSGNTRYQPSLKSRITISRDTSKNQFFLKLNSVTAADTATYYCVTAGRGFPYWGQGTLVTVSS
VL: EIVLTQSPGTLSVSPGERATLSCRASQSIGSSLHWYQQKPGQAPRLLIKYASQSLSGIPDRFSGSGSGTDFTLTISRLEPEDFAVYYCHQSSRLPHTFGQGTKVEIKRTVAAPDIQMTQSPSSMSVSVGDRVTITCHSSQDINSNIGWLQQKPGKSFKGLIYHGTNLDDGVPSRFSGSGSGTDYTLTISSLQPEDFATYYCVQYAQFPWTFGGGTKLEIK
Regarding B10, the “GEO MEAN” value in the test with EGFR on the cell surface [2] stood at 9.84.
